From the supplement of paper PMC12042874 come the findings set out here.

± gives the uncertainty stated by the source.

This data set can be described thus: amyloid nucleation score (Sup35N fusion, yeast selection) (log enrichment); library NNK2; higher = more nucleation; inactive = no reads after selection. A digest of the protocol:
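Plasmid inserts were Illumina-sequenced at input and output from psi-negative yeast expressing Sup35N fused to peptides of 20 random codons. The yeast were induced with 100 μM copper sulfate for 24 hours and grown 7 days at 30°C on medium lacking adenine and uracil, and sequences with under 100 input reads were excluded. Nucleation score is the DiMSum log enrichment of output over input reads, centred on the mode score of non-aggregating sequences.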
ESIYLVGICGSSG had an amyloid nucleation score of 0.247 ± 1.
Turning to ETAQLWYSRVACCKKRVVYG, the amyloid nucleation score is 0.594 ± 0.47.
In turn, ETKWPDHYK had an amyloid nucleation score of 0.515 ± 0.64.
The value for ETSMYVYLGI was -0.384 ± 0.35; that for ETVGYN was 0.284 ± 1.1; that for EVANGKFCNFGSLYDLMWWE was -0.348 ± 0.76.
The value for EVCMWIPHTAVRLYQS was 1.15 ± 0.23; that for EVEWAFTYHISL was -0.095 ± 0.39.
Under EVGVEGEIF stands -0.56 ± 0.4; under EVHHNGM, 0.367 ± 0.62.
EVILTLIRYNV: the amyloid nucleation score was 4.21 ± 0.1.
EVLGLV had an amyloid nucleation score of -0.841 ± 0.64.
The value for EVRRCGEEFGNGARMRWMGV was 0.923 ± 0.28; that for EWLAVYVYLHQDGLNNFRS was -0.784 ± 0.4; that for EWLIAW was 1.29 ± 0.25.
Under EWSVWRSAKWQFQARNGMQG stands 2.05 ± 0.48.
The value for EYHFCTWFRVDIPFVFHDVV was -0.072 ± 1.1; that for EYIYTIGYGL was “inactive”.
As for EYMYYGFYCHYGSSVLAF, the amyloid nucleation score is -0.731 ± 0.56.
The value for FACRWFQSWSLRYLFPELTL was -0.238 ± 0.5; that for FAFWGVSI was 0.332 ± 0.24.
As for FAGNAHGRRTG, the amyloid nucleation score amounted to 1.3 ± 0.31.
Under FAKFQGSKISPVSHTSLLST stands “inactive”.
The value for FALHGEDWSNSTISRNFWSR was -0.031 ± 0.35.
The value for FALNPAESLHIRYIGLALF was -1.02 ± 0.62; that for FAMDSIKRFFKIIIFSRYT was -1.34 ± 1.1; that for FAMNSVSFSAGNFTDSVPWW was -0.666 ± 0.63.
As to FARKMIGLPLLYLLGVMFGR, the amyloid nucleation score is -0.877 ± 0.78.
Under FASLCTW stands -0.211 ± 0.46.
FAVFPLVPGRGPGLFENNRW gave an amyloid nucleation score of -0.104 ± 0.74.
The value for FAWNMLS was 0.285 ± 0.74; that for FAYLPSTVVGVSHSTLGPLI was 0.221 ± 0.43.
Under FCAQITPHRISWLWWQINRQ stands -0.304 ± 1.1.
Under FCCFRVYVDMENLSNSALTL stands 7.557 ± 0.033; under FCLFW, “inactive”.
FCLGRMLARPRRTCYTDENM registered an amyloid nucleation score of -0.126 ± 0.49.
Turning to FCLVY, the amyloid nucleation score amounted to 0.744 ± 0.19.
In turn, FCMFSNIYVFPSTIF showed an amyloid nucleation score of 7.583 ± 0.02.
Under FCNLN stands -0.02 ± 0.28; under FCRSVILSVQMLFKYAIYRF, -1.37 ± 1.1.
The value for FCRWSVTFNFRSMIGPGS was 5.344 ± 0.035; that for FCSTTAICYKGEKQ was 3.47 ± 0.14; that for FCTHPSFGTVMGMRAETGLD was 0.516 ± 0.81.
Take FCVAGQLLVS: the amyloid nucleation score was determined as 0.228 ± 0.25.
Under FCWRNCLNVIDTF stands -1.22 ± 0.35.
On to FDKRS, for which the amyloid nucleation score result was “inactive”.
Consider FDNRNVSVSYPYNKMGNRVM, for which the amyloid nucleation score is 2.57 ± 0.069.
Under FDQTFEDWWPAYNHSRFNQH stands 0.352 ± 0.51; under FDYFF, “inactive”; under FDYKSKKGRNNDWRTVCCVM, 2.21 ± 0.16.
The value for FDYVLSGICIPLKSIGVSFG was 8.385 ± 0.053; that for FDYVMFSDIVWSYTKNDALM was -0.111 ± 0.63.
The value for FEAINMSQQCIYCFPMSRNI was 7.388 ± 0.053; that for FEFMNDFQSYVRMFRCLVFL was -0.401 ± 0.43; that for FEFTTCQGDRRSCFDGWGGN was 2.19 ± 0.15.
Consider FENYYGSHGDFGVYDKFNHL, for which the amyloid nucleation score entry was “inactive”.
The value for FFDYLANFCLSKHGNNNYPF was -0.97 ± 1.1; that for FFEMFGCHMFLLMAYLTI was 0.164 ± 0.63; that for FFFRSHKTIILVAKG was -0.104 ± 0.2.
The value for FFFVLFGFWYKTRWSMCISK was 2.31 ± 0.22; that for FFIYGNSHVSVIRYWTCTLT was 7.391 ± 0.049.
The value for FFLLPLVRYELLSNVDAVPG was 0.101 ± 0.76; that for FFNAR was -0.951 ± 0.62; that for FFRLIGDGGYCCFPCKSDVR was 2.54 ± 0.077.
On to FFSFGCGSWRTVIVTSRSL, for which the amyloid nucleation score was -0.299 ± 1.
FFSNIFIEASVCELGSNANV yielded an amyloid nucleation score of 1.03 ± 0.23.
FFTAMDASRSRLKCSYAVQT gave an amyloid nucleation score of 3.28 ± 0.13.
The value for FFWSLGSYILHYC was “inactive”; that for FFYHLCASVRLA was -1.11 ± 0.78; that for FFYRVPDITSDAGITQLLAQ was 5.483 ± 0.048.
Under FGCSVNRKILVLMFVNVISV stands -0.627 ± 0.39; under FGFWDLMSCTSRMGTIIRLY, “inactive”; under FGGINIGCGQCLFVVR, 8.503 ± 0.053.
Under FGIGFGFLVHYDGRFWVYFG stands “inactive”.
FGLSRL: the amyloid nucleation score was determined as 0.713 ± 0.74.
For the substance FGMFGSSYYIMY, the amyloid nucleation score was 2.63 ± 0.093.
In the case of FGMNDRRH, the amyloid nucleation score was -0.381 ± 0.79.
The value for FGNDPSGCVNQAYYHRCFLD was -0.959 ± 0.78; that for FGVNDLYSDLW was -0.68 ± 0.25; that for FHARPDSNPEENMVDSGI was “inactive”.
With FHLEPLKWSWVST, the amyloid nucleation score is -0.837 ± 1.1.
The value for FHLMFCGSL was -0.818 ± 0.49.
On to FIAYMYPMVIWIPMRFLINQ, for which the amyloid nucleation score entry is “inactive”.
The value for FICCNNSQIRVSFWLRTWYL was 3.39 ± 0.048; that for FIDTLNYDWDIVLFWFLGEN was 0.021 ± 0.51.
Consider FIICPSSDCNIRDIRRILTC, for which the amyloid nucleation score was -0.967 ± 0.28.
Under FIICTEWPSDLLNWSSVANW stands -0.658 ± 1; under FIIMFIRLLSW, 1.12 ± 0.14; under FILSQWYKGSECTTCRRLWG, -0.318 ± 0.4.
The value for FIMMDRAGSMIYSKGTRNIR was 3.05 ± 0.11; that for FINILKSSMLSVDWSLPIFN was “inactive”; that for FINSHFHYEECPIMGKQSVL was 1.63 ± 0.53.
The value for FINVLDSNLAQLWLLFTSWR was 1.51 ± 0.14; that for FIRYS was 1.79 ± 0.084; that for FIRYVCHNVWDICYHLEMLL was “inactive”.
Regarding FISMGQGRPEFLWVFVDVGD, the amyloid nucleation score stood at 0.092 ± 1.1.
The value for FITQVHSYWDSISTVTSDIL was “inactive”.
Consider FIVRSLRSSHTKTVPLPACC, for which the amyloid nucleation score entry was “inactive”.
Under FKASWVVRASNKDTHIHRGG stands -0.144 ± 0.49; under FKDRYRTGFSDVRNQVAHSV, “inactive”; under FKDSDVEEWLNVKIIYWGVC, -0.604 ± 0.41.
Under FKDTWQSPGAVERKGMRTSV stands 0.365 ± 0.22.
The value for FKDWNKWY was “inactive”; that for FKHVLDRN was -0.343 ± 0.45.
Turning to FKIVALTTVNIVLRDSWCNP, the amyloid nucleation score is 6.199 ± 0.061.
In turn, FKLFSFQVLYCSFDPCMHYT displayed an amyloid nucleation score of -1.33 ± 0.62.
In turn, FKQLIMGYS came in with an amyloid nucleation score of 3.24 ± 0.075.
Under FKSTYVHHYRVMPGSVVLLR stands -1.2 ± 1.1.
Under FLEQFVMSLT stands -0.752 ± 0.44.
The value for FLFEN was -0.607 ± 0.64; that for FLFETMVIFSSSEMVWRDWC was 0.192 ± 1; that for FLFGLSIMLLNKEPGRCFRG was 5.23 ± 0.097.
As to FLGEAHFI, the amyloid nucleation score amounted to 0.078 ± 0.4.
Substance FLGLTDWRVDYCSEWQGFAQ returned an amyloid nucleation score of -0.199 ± 1.1.
FLIFDRSKCCCVDTRGSGGT: the amyloid nucleation score entry is “inactive”.
In turn, FLIVPKILNICL had an amyloid nucleation score of 7.746 ± 0.077.
The value for FLKYSDKQHAVNVGLKVTAQ was 0.094 ± 0.74; that for FLLDCN was 2.56 ± 0.15; that for FLLECSWFCVYTIGFYYRNI was “inactive”.
The value for FLLHVCVADKVGVTSIHTCC was -0.181 ± 0.35.
The value for FLLSVGSHCMPVHEYGMTNA was 0.445 ± 0.56.
Take FLMGVPEIFFPLVVSDYMYV: the amyloid nucleation score result was “inactive”.
FLRNWGTAWLVGFNSAKFIC showed an amyloid nucleation score of -0.955 ± 0.63.
Under FLSRIYESLSTVI stands “inactive”; under FLSSGFCRTDFVRSIILYGP, -1.43 ± 0.55.
The value for FMEYCSVLLFCLVMARLSGS was -0.012 ± 1.1.
For FMITWGINRS, the amyloid nucleation score worked out at 4.02 ± 0.043.
The value for FMLAHVYVNV was -1.01 ± 0.78.
Under FMRMALAGPDKF stands -0.738 ± 1.1; under FMSFVYLHVPSANTCI, 3.83 ± 0.045; under FMSGRESAVCLFKNFSVLRS, 2.76 ± 0.084.
Under FMSMLSCQAKTNLPMYATHM stands -0.091 ± 0.79; under FMTSWTVYSSRAYLHENVGT, 1.08 ± 0.37.
Regarding FMVILSGYIVL, the amyloid nucleation score worked out at 0.429 ± 0.66.
Under FMVWWFTIRVPEDCYQP stands -0.5 ± 0.39; under FMYHSYSGRPNNHAIGKHFR, -0.405 ± 0.49; under FMYWLGCYIRLLCDNLKQRG, -0.979 ± 0.49.
The value for FNAIYIKFTGRFSLTRDNRC was 1.73 ± 0.21; that for FNDGTQKSTLACVRNKYRVY was 0.633 ± 0.57; that for FNGVIFNGSSVNYYPFAHSF was 5.035 ± 0.036.
Under FNHYQ stands 0.419 ± 0.36.
